Results from article PMC4963197, “Phosphorylation acts positively and negatively to regulate MRTF-A subcellular localisation and activity” (eLife, 2016).

Molecular target: G-actin, P68135
Assay: size exclusion chromatography
Details: chain shown with the change

B1: MRTF-A(67–199) L74A; L78A; S98D (protein)
chain: LSERKNVAQLKAQQRRTREELVSQGIMPPLKDPAAFHEQRRSLERARTEDYLKRKIRSRPERAELVRMHILEETSAEPSLQAKQLKLKRARLADDLNEKIAQRPGPMELVEKNILPVESSLKEAIIVGQVNYP
- other: actins (apparent stoichiometry of G-actin binding): 2.3
